This data set in a line: protein stability index of a GFP-peptide fusion (GPS, HEK-293T) (PSI 1-6); higher = more stable. The following applies: c terminus: a fixed tail appended.

± gives the standard deviation.
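Further: 24-mer peptide tiles fused after GFP, lentivirally expressed, FACS-sorted into six equal bins by GFP/DsRed ratio, decoded by Illumina sequencing, PSI is the read-weighted mean bin number.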

As for IEPLVPEEKMETKTESSGIETEPT [EPB41L3], the protein stability index runs as follows: (treatment: DMSO) 5.45 ± 0.31; (treatment: MLN4924 1 uM, 8 h) 5.46 ± 0.51.
On to IGNPPVGPIGGMMPPQPGIPQQQG [ZNF207], for which the protein stability index amounted to 4.62 ± 0.28 (treatment: DMSO) and 4.53 ± 0.21 (treatment: MLN4924 1 uM, 8 h).
For IIKTEKVDLELFPSPDMECADVPL [ETS1] the same measures were 3.99 ± 0.19 and 3.97 ± 0.22.
The like results for IITVTLNMEKYNFLGISIVGQSNE [DVL3] were, in that order, 3.15 ± 0.69 and 3.04 ± 0.4.
The like results for IKEVVEKREACHCEEVKMTVASEA [FAN1] were, in that order, 4.89 ± 0.25 and 4.95 ± 0.17.
Sequence IKSVKESLQESVEDSLATVKVVLI [IQUB] showed a protein stability index (treatment: DMSO) of 2.27 ± 0.66 and a protein stability index (treatment: MLN4924 1 uM, 8 h) of 2.44 ± 0.32.
ILAVSFAPLIQPCHSESGKSRLVQ [PCMTD2]: the protein stability index (treatment: DMSO) turned out to be 2.23 ± 0.59 and the protein stability index (treatment: MLN4924 1 uM, 8 h) came to 1.93 ± 0.25.
The like results for ILDDGTISAHKPLLISSCDWMAAM [RHOBTB2] were, in that order, 2.29 ± 0.24 and 2.12 ± 0.19.
For ILDLSCNKLTTLPSDFCGLTHLVK [LRRC59] the same measures were 2.02 ± 0.38 and 2.09 ± 0.022.
For ILELLVLEQFLAILPKELQAWVQK [ZNF396] the same measures were 2.67 ± 0.24 and 2.65 ± 0.5.
Consider ILGPAYFVTYVFFVFFVLLNMFLA [PKD2L1], for which the protein stability index runs as follows: (treatment: DMSO) 2.88 ± 0.45; (treatment: MLN4924 1 uM, 8 h) 3.22 ± 0.3.
For ILGPVVGGYLTELEDGFYLTAFIC [MFSD9], the protein stability index runs as follows: (treatment: DMSO) 2.99 ± 0.34; (treatment: MLN4924 1 uM, 8 h) 3.05 ± 0.88.
For ILLSWTPPRSDTIANYELVYKDGE [PTPRD] the same measures were 2.03 ± 0.41 and 2.23 ± 0.42.
For ILNLTQALKDNKSPLHLVQMPPVI [PI4K2A] the same measures were 2.54 ± 0.27 and 2.35 ± 0.23.
For ILPKELQTWVRDHHPENGEEAVTV [ZNF24] the same measures were 3.92 ± 0.17 and 4.17 ± 0.25.
Take ILSFTVIMVGFILYCSTPTRTAEP [SLC35F2]: the protein stability index reads like this: (treatment: DMSO) 3.27 ± 0.65; (treatment: MLN4924 1 uM, 8 h) 2.77 ± 0.53.
With IMATLGFGDSPKAEKRQIGDQEGP [FBF1], the protein stability index came to 4.37 ± 0.17 (treatment: DMSO) and 4.3 ± 0.12 (treatment: MLN4924 1 uM, 8 h).
For IPGFKFDNSLINQIENLNIQVEDI [LOXL2] the same measures were 3.51 ± 0.18 and 3.37 ± 0.38.
For the sequence IPKLTPGDNPYMYPEQSKGFHKAG [SPATS1], the protein stability index came out at 3.97 ± 0.28 (treatment: DMSO) and 3.84 ± 0.25 (treatment: MLN4924 1 uM, 8 h).
For the sequence IQFWNSRQSLEGLSVRSVFFGVFQ [CLPTM1], the protein stability index by setting is: (treatment: DMSO) 2.65 ± 0.46; (treatment: MLN4924 1 uM, 8 h) 2.79 ± 0.91.
As to IQPDDLINQLTFIMDANQTYLVSE [FAF2], the protein stability index was 2.32 ± 0.27 (treatment: DMSO) and 2.37 ± 0.31 (treatment: MLN4924 1 uM, 8 h).
The like results for IQVSLYCQEWYARRHCPLPQATFW [SOAT2] were, in that order, 2.87 ± 0.38 and 3.07 ± 0.83.
For IREALHELLCCTNVSTKEGIHLAL [INTS4] the same measures were 2.41 ± 0.46 and 2.48 ± 0.3.
As to IRIIDRALKEDFGFKHRLWVYSGR [PRIM1], the protein stability index by setting is: (treatment: DMSO) 2.18 ± 0.51; (treatment: MLN4924 1 uM, 8 h) 2.27 ± 0.51.
For the sequence IRVVGRGAFGIVHLCLRKADQKLV [NEK8], the protein stability index reads like this: (treatment: DMSO) 3.02 ± 0.59; (treatment: MLN4924 1 uM, 8 h) 2.74 ± 0.81.
In the case of ISFTLYLIGFCMFVLSLVKKHYRL [CDS2], the protein stability index is 2.29 ± 0.48 (treatment: DMSO) and 2.44 ± 0.53 (treatment: MLN4924 1 uM, 8 h).
The like results for ISPETMVALLTGKFSNIVDKFVIV [CDC25B] were, in that order, 2.29 ± 0.51 and 2.38 ± 0.73.
For ITRPSPRRSNSPDKFKRPTPPPSP [CCDC6] the same measures were 5.18 ± 0.13 and 5.44 ± 0.081.
For IVLLEELLPKGSKEEQRDYVFYLA [FIS1] the same measures were 2.33 ± 0.34 and 2.16 ± 0.44.
As for IVVGRLKVALEPQLWELGKVLRKA [LPCAT4], the protein stability index runs as follows: (treatment: DMSO) 2.31 ± 0.37; (treatment: MLN4924 1 uM, 8 h) 2.61 ± 0.49.
For IWTAHYDPGHCFAESRELPVRCAG [ALG2] the same measures were 2.38 ± 0.32 and 2.4 ± 0.24.
For IYRRYRQFHALQSKLEERFGPDSK [NCF4], the protein stability index is, setting by setting: (treatment: DMSO) 2.28 ± 0.23; (treatment: MLN4924 1 uM, 8 h) 2.61 ± 0.34.
Consider KAQLLARVNKEHEHKLKVVRDQIS [TRIM9], for which the protein stability index is, setting by setting: (treatment: DMSO) 3.34 ± 0.27; (treatment: MLN4924 1 uM, 8 h) 3.42 ± 0.075.
KAVSEMRQKIWNNMPKDHPVSCCL [DYNC2LI1]: the protein stability index came to 2.41 ± 0.21 (treatment: DMSO) and 2.46 ± 0.29 (treatment: MLN4924 1 uM, 8 h).
As for KDEEGRLRDPATITTLRVPVLRPM [PPP2R2B], the protein stability index reads like this: (treatment: DMSO) 3.78 ± 0.23; (treatment: MLN4924 1 uM, 8 h) 4.04 ± 0.26.
The like results for KDESCYDNAEAAFSDDEEDLNSKG [INTS3] were, in that order, 5.6 ± 0.39 and 5.5 ± 0.18.

(Values after the supplement of paper PMC10567573.)
